Series [1] concerns the molecule itself. Briefly: mass photometry; Cdc13 alone diluted in PBS, 11.25 nM protein, room temperature.
Series [2] has as its target T1, Cdc13 WT (Saccharomyces cerevisiae, UniProt P32797 1-924).
T1 sequence: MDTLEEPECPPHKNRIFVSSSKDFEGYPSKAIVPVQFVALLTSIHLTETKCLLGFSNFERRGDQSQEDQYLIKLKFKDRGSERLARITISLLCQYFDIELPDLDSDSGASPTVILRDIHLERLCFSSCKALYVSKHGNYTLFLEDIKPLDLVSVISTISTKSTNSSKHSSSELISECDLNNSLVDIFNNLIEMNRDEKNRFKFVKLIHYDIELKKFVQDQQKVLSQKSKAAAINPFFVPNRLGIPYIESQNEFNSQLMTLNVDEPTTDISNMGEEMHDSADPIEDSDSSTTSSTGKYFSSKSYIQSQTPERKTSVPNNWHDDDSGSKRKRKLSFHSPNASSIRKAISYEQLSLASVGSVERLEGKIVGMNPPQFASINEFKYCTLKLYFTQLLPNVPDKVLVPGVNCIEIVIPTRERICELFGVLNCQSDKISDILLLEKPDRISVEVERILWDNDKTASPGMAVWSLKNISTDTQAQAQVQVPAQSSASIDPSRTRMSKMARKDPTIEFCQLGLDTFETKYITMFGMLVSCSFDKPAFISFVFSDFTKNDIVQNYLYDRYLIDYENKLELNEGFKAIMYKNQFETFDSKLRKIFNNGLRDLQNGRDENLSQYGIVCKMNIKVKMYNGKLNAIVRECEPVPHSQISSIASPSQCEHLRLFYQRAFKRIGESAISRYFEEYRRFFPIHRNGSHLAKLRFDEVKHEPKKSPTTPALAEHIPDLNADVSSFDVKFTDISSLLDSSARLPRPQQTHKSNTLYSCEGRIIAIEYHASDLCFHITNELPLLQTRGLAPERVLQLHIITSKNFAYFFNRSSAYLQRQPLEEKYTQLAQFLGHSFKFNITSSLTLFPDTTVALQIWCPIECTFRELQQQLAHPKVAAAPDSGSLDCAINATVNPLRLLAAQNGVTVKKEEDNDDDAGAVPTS
The series is described as follows: mass photometry; one and two dimers per ssDNA; binding buffer; 25 mM HEPES pH 8.0, 50 mM NaOAc, 150 mM NaCl, 7.5 mM MgCl2 (1x DNA-binding buffer); DDE incubation 30 C, 8% native gel; mass photometry at room temperature after 30 C incubation; BLI buffer details not in material. The conditions noted are these: protein: recombinant; chain copies: 2.

Series [3] addresses T2, Cdc13-L91R (Saccharomyces cerevisiae, UniProt P32797 1-924, L91R).
T2 sequence: T1 sequence with L91R
The series is described as follows: mass photometry; small population with two monomers per ssDNA; binding buffer; 25 mM HEPES pH 8.0, 50 mM NaOAc, 150 mM NaCl, 7.5 mM MgCl2 (1x DNA-binding buffer); DDE incubation 30 C, 8% native gel; mass photometry at room temperature after 30 C incubation; BLI buffer details not in material. The conditions noted are these: protein: recombinant.

In series [4] the target is T2, Cdc13-L91R. The series is described as follows: competition EMSA (DDE assay); EC50 for displacing 2 nM prebound IR800-Tel30G; 3.75 nM monomer; 30 C; 25 mM HEPES pH 8.0, 50 mM NaOAc, 150 mM NaCl, 7.5 mM MgCl2 (1x DNA-binding buffer); DDE incubation 30 C, 8% native gel; mass photometry at room temperature after 30 C incubation; BLI buffer details not in material. The conditions noted are these: protein: recombinant; label: 5' IRDye700. Background: A gel shift assay detects complexes by their altered migration in electrophoresis.

Series [5] concerns the target T1, Cdc13 WT. Briefly: competition EMSA (DDE assay); EC50 for displacing 2 nM prebound IR800-Tel30G; 3.75 nM dimer; 30 C; value introduced 'as reported (9)', assay also run here; 25 mM HEPES pH 8.0, 50 mM NaOAc, 150 mM NaCl, 7.5 mM MgCl2 (1x DNA-binding buffer); DDE incubation 30 C, 8% native gel; mass photometry at room temperature after 30 C incubation; BLI buffer details not in material. Particulars: protein: recombinant; chain copies: 2; label: 5' IRDye700.

Changes are numbered by the printed parent chain.

The source of these data is article PMC12362098, “Dimerization of Cdc13 is essential for dynamic DNA exchange on telomeric DNA” (The Journal of Biological Chemistry, 2025).

What is called stoichiometry N is the number of molecules, sites or subunits per partner or assembly. Broadly, the IC50 is the point on the concentration scale where inhibition reaches its midpoint.

B1: Cdc13 (wild type, recombinant) (natural protein, S. cerevisiae, UniProt P32797 1-924, looked up)
chain: T1 sequence
notes: called full-length WT Cdc13 in the text; The vector encodes a 5'-SUMO-His6 tag and a 3'-FLAG tag for purification; The monomer mass seen was ~105 kDa; also called WT Cdc13
For B1, the “stoichiometry N” value in series [1] was found to be 2.

B2: Tel50G (ssDNA)
DNA: GTGTGGGTGTGGTGTGGGTGTGGTGTGGGTGTGTGGGTGTGGTGTGGGTG
As to B2, the binding result in series [2] and in series [3] was “binds” in each case.

B3: IR700-Tel30G (ssDNA)
DNA: CGCCATGCTGATCCGTGTGGTGTGTGTGGG
Consider B3, for which the IC50 amounted to 31.6 nM in series [4] and 0.89 nM in series [5].
